Laboratory results published in patent US20120058906A1 (published 2012).

T1: rHuman Erythropoietin R/Fc Chimera, CF (R&D Systems Cat#963-ER) (human, UniProt P19235 25-250)
T1 construct: Bought Fc chimera; also called EPO R/Fc; Epo R; not shown: Fc of the bought chimera
T1 sequence: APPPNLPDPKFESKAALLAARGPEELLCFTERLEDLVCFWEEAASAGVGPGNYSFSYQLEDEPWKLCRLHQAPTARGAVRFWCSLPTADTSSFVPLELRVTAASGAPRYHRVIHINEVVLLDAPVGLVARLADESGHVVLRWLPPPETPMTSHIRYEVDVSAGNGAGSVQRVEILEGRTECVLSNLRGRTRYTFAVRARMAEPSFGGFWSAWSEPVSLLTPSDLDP


What was measured:
[1] = molecular target: T2, rHuman IGF-1 sR (IGF-1 sR), CF (R&D Systems Cat#391-GR) (human, UniProt P08069 31-932); experiment: MSD ECL multi-spot plate, antigen immobilized; Fab 1.6 nM; blank spot 565
T2 construct: Purchased soluble receptor; also called insulin-like growth factor-1 soluble receptor; IGF-R1

[2] = molecular target: T3, rHuman EGF R/Fc Chimera, CF (R&D Systems Cat#344-ER) (human, UniProt P00533 25-645); experiment: as above
T3 construct: Purchased Fc chimera; not shown: Fc portion of the purchased chimera

[3] = molecular target: T4, rHuman CD44/Fc Chimera, CF (R&D Systems Cat#3660-CD) (human, UniProt P16070 21-220); experiment: as above
T4 construct: Purchased Fc chimera; not shown: Fc portion of the purchased chimera

[4] = molecular target: T5, rHuman ErbB2/Fc Chimera, CF (R&D Systems Cat#1129-ER) (human, UniProt P04626 23-652); experiment: as above
T5 construct: Purchased Fc chimera; also called HER2/neu; not shown: Fc portion of the purchased chimera

[5] = molecular target: T6, rHuman EGF R/Fc Chimera, CF (R&D Systems Cat#344-ER) (human, UniProt P00533 25-645); experiment: ECL (MSD multi-spot), antigen on plate, Fab 2 nM
T6 construct: Bought Fc chimera; also called ErbB-1; not shown: Fc of the bought chimera

[6] = molecular target: T1, rHuman Erythropoietin R/Fc Chimera, CF …; experiment: ECL (MSD multi-spot), antigen on plate, Fab 2 nM
[7] = molecular target: T7, Recombinant Human DLL4 (R&D Systems Cat#1506-D4/CF) (human, UniProt Q9NR61 27-524); experiment: ECL (MSD multi-spot), antigen on plate, Fab 2 nM
T7 construct: Bought recombinant protein; also called delta-like protein 4

[8] = molecular target: T8, rHuman CD44/Fc Chimera, CF (R&D Systems Cat#3660-CD) (human, UniProt P16070 21-220); experiment: ECL (MSD multi-spot), antigen on plate, Fab 2 nM
T8 construct: Bought Fc chimera; not shown: Fc of the bought chimera

[9] = molecular target: T9, rHuman IGF-1 sR (insulin-like growth factor-1 soluble receptor), CF (R&D Systems Cat#391-GR) (human, UniProt P08069 31-932); experiment: ECL (MSD multi-spot), antigen on plate, Fab 2 nM
T9 construct: Bought soluble receptor; also called IGF-R1

[10] = molecular target: T10, rHuman P-Cadherin/Fc Chimera, CF (R&D Systems Cat#861-PC) (human, UniProt P22223 108-654); experiment: ECL (MSD multi-spot), antigen on plate, Fab 2 nM
T10 construct: Bought Fc chimera; also called CDH3; not shown: Fc of the bought chimera

[11] = molecular target: T11, rHuman Notch-1/Fc Chimera, CF (R&D Systems Cat#3647-TK) (human, UniProt P46531 19-526); experiment: ECL (MSD multi-spot), antigen on plate, Fab 2 nM
T11 construct: Bought Fc chimera; not shown: Fc of the bought chimera

[12] = molecular target: T12, rHuman HGF R/c-MET/Fc Chimera, CF (R&D Systems Cat#358-MT/CF) (human, UniProt P08581 25-932); experiment: ECL (MSD multi-spot), antigen on plate, Fab 2 nM
T12 construct: Bought Fc chimera; also called HGF R/Fc; not shown: Fc of the bought chimera

[13] = molecular target: T13, rHuman ErbB2/Fc Chimera, CF (R&D Systems Cat#1129-ER) (human, UniProt P04626 23-652); experiment: ECL (MSD multi-spot), antigen on plate, Fab 2 nM
T13 construct: Bought Fc chimera; also called HER2/neu; not shown: Fc of the bought chimera

[14] = molecular target: T6, rHuman EGF R/Fc Chimera, CF (R&D …); experiment: ECL (MSD multi-spot), antigen on plate, Fab 10 nM
[15] = molecular target: T1, rHuman Erythropoietin R/Fc Chimera, CF …; experiment: ECL (MSD multi-spot), antigen on plate, Fab 10 nM
[16] = molecular target: T7, Recombinant Human DLL4 (R&D Systems …); experiment: ECL (MSD multi-spot), antigen on plate, Fab 10 nM
[17] = molecular target: T9, rHuman IGF-1 sR (insulin-like growth …); experiment: ECL (MSD multi-spot), antigen on plate, Fab 10 nM
[18] = molecular target: T10, rHuman P-Cadherin/Fc Chimera, CF (R&D …); experiment: ECL (MSD multi-spot), antigen on plate, Fab 10 nM
[19] = molecular target: T12, rHuman HGF R/c-MET/Fc Chimera, CF (R&D …); experiment: ECL (MSD multi-spot), antigen on plate, Fab 10 nM
[20] = molecular target: T13, rHuman ErbB2/Fc Chimera, CF (R&D …); experiment: ECL (MSD multi-spot), antigen on plate, Fab 10 nM
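Note: blank spot per well as comparator with Hit at signal to blank ratio of 4 or more.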

ECL signal [1] [ECL signal]	ECL signal [2] [ECL signal]	ECL signal [3] [ECL signal]	ECL signal [4] [ECL signal]	ECL signal [5] [ECL signal]	ECL signal [6] [ECL signal]	ECL signal [7] [ECL signal]	ECL signal [8] [ECL signal]	ECL signal [9] [ECL signal]	ECL signal [10] [ECL signal]	ECL signal [11] [ECL signal]	ECL signal [12] [ECL signal]	ECL signal [13] [ECL signal]	ECL signal [14] [ECL signal]	ECL signal [15] [ECL signal]	ECL signal [16] [ECL signal]	ECL signal [17] [ECL signal]	ECL signal [18] [ECL signal]	ECL signal [19] [ECL signal]	ECL signal [20] [ECL signal]	Binder
1440	1180	938	1320	–	–	–	–	–	–	–	–	–	–	–	–	–	–	–	–	Fab VH5-51_IGHD5-18*01>3_IGHJ4*01_G100K & V3-4_IGLJ1*01 (Fab, V domains shown, It was expressed as a Fab: CH1 with tags from Plasmid A and lambda CL from Plasmid E; also called Fab No. 22) VH: EVQLVQSGAEVKKPGESLKISCKGSGYSFTSYWIGWVRQMPGKGLEWMGIIYPGDSDTRYSPSFQGQVTISADKSISTAYLQWSSLKASDTAMYYCARRKYSYGYDYFDYWGQGTLVTVSS VL: QTVVTQEPSFSVSPGGTVTLTCGLSSGSVSTSYYPSWYQQTPGQAPRTLIYSTNTRSSGVPDRFSGSILGNKAALTITGAQADDESDYYCVLYMGSGISYVFGTGTKVTVL
–	–	–	–	197	326	10500	146	222	351	202	183	337	297	392	29800	214	240	271	303	Fab VH1-46_IGHD6-6*01_IGHJ1*01_S102A_S103P_S104F & L6_IGKJ1*01_S31K (Fab, V domains shown, Fab) VH: QVQLVQSGAEVKKPGASVKVSCKASGYTFTSYYMHWVRQAPGQGLEWMGIINPSGGSTSYAQKFQGRVTMTRDTSTSTVYMELSSLRSEDTAVYYCAREEYAPFSAEYFQHWGQGTLVTVSS VL: EIVLTQSPATLSLSPGERATLSCRASQSVSKYLAWYQQKPGQAPRLLIYDASNRATGIPARFSGSGSGTDFTLTISSLEPEDFAVYYCQQRSNWPPWTFGQGTKVEIKR
